Assay results reported in patent US20250277030A1 (Zymeworks, published 2025).

Assays:
[1] = target: T1, human sodium-dependent phosphate transporter 2B (NaPi2b) (human, UniProt O95436 1-690); experiment: flow cytometry, TOV-21G cells (endogenous NaPi2b); apparent Kd
T1 construct: UniProt ID is given as 095436 [sic]; also called hNaPi2b; Hu NaPi2b
T1 sequence: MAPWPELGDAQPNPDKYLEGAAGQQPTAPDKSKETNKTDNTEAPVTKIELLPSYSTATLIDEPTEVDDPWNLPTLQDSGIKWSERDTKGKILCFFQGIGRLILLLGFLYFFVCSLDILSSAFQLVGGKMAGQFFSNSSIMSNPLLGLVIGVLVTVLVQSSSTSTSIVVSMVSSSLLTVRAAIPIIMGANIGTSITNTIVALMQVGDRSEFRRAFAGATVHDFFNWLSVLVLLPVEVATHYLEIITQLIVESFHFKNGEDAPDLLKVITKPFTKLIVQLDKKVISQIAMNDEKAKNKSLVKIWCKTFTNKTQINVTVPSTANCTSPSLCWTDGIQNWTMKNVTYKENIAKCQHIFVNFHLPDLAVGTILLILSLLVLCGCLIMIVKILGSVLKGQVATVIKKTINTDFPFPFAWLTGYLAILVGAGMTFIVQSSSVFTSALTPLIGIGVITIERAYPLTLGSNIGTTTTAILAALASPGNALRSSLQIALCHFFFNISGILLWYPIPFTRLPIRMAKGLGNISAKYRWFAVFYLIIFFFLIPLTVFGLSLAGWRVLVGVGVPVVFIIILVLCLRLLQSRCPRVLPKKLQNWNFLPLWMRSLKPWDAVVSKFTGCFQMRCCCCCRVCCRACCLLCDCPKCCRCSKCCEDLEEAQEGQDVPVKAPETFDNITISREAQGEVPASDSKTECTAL
Experimental: (§1) Briefly, cells were seeded at 50,000 cells/well in conical-bottom 96-well plates and treated with test antibody for 24 hours at 4° C. to prevent internalization. […] Following incubation, cells were washed and stained with anti-Human IgG Fc AF647 conjugate (Jackson Immuno Research Labs, West Grove, PA; Cat. No. 109-605-098) at 4° C. for 30 min. Following incubation and washing, fluorescence was detected by flow cytometry on a BD LSRFortessa™ Cell Analyzer (BD Biosciences, Franklin Lake, NJ) with 1,000 minimum events collected per well. The AF647/APC-A GeoMean (fluorescence signal geometric mean, proportional to anti-Human AF647 binding) was calculated for the live cell population using FlowJo™ Version 10.8.1 (BD Biosciences, Franklin Lake, NJ) and plotted for each test antibody using GraphPad Prism Version 9 (GraphPad Software, San Diego, CA).
(§2) The ability of the humanized antibody variants v38591 and v29456 to bind to NaPi2b expressed on cells was assessed on endogenous NaPi2b-expressing tumor cell lines IGROV-1 (ovarian adenocarcinoma) and TOV-21G (ovarian carcinoma) by flow cytometry.
(§3) Cellular binding was performed according to methods described in Example 13.

[2] = target: T1, human sodium-dependent phosphate …; experiment: flow cytometry on IGROV-1 cells (endogenous NaPi2b), 24 h at 4 C, anti-human IgG Fc AF647 detection
Experimental: as §1, §2, §3

cynomolgus monkey NaPi2b = target: T2, cynomolgus monkey NaPi2b (cynomolgus monkey, UniProt O95436 1-690 (human entry)); experiment: flow cytometry, HEK293-6e cells transfected with cynomolgus NaPi2b
T2 construct: Transiently expressed on HEK293-6e cells; also called Cyno NaPi2b
T2 chain: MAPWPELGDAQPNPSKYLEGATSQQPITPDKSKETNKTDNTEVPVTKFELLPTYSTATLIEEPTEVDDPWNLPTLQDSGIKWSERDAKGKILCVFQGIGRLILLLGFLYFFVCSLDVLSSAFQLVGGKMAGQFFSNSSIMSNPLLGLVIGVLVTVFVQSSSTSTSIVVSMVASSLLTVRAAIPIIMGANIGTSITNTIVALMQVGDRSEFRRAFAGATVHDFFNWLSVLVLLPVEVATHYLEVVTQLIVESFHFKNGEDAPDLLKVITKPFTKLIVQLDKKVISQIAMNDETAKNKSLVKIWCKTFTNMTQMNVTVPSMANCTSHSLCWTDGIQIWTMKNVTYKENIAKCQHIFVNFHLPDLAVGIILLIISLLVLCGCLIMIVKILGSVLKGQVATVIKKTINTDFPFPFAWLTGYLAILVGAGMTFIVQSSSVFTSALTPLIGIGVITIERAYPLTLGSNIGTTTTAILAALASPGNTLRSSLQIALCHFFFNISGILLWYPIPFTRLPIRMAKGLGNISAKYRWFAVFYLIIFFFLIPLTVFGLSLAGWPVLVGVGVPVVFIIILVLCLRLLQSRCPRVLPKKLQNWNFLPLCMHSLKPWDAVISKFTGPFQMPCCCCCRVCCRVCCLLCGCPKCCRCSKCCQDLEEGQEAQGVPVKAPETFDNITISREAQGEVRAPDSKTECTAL
Experimental: The binding cross-reactivity of humanized antibody variant v29456 to human, cynomolgus and mouse NaPi2b was assessed by flow cytometry using HEK293-6e transfected cells.
(§4) Briefly, HEK293-6e cells were transfected for ˜24 hours to transiently express human NaPi2b, cynomolgus or mouse NaPi2b, at 1 μg of DNA per 1 million cells. Following transfection, 50,000 cells per well were seeded in V-bottom 96-well plates and incubated with 200 nM of primary antibody for 18-24 hours at 4° C. to prevent internalization. Post-incubation, cells were washed and stained with anti-Human IgG Fc AF647 conjugate (Jackson Immuno Research Labs, West Grove, PA, Cat. No. 109-605-098, Lot. No. 124868) at 4° C. for 1 hour. Following staining and washing, fluorescence was detected by flow cytometry on BD LSRFortessa™ Cell Analyzer (BD Biosciences, Franklin Lake, NJ) with 10,000 minimum events collected per well. The AF647/APC-A GeoMean (fluorescence signal geometric mean, proportional to anti-Human AF647 binding) was calculated for the live singlet cell population for each primary antibody using FlowJo™ v8 software (BD Biosciences, Franklin Lake, NJ). The Bmax and Kd of each primary antibody were calculated using GraphPad Prism Version 9 (GraphPad Software, San Diego, CA)

[3] = target: T1, human sodium-dependent phosphate …; experiment: flow cytometry on IGROV-1 cells (endogenous NaPi2b), 4 C, anti-human IgG Fc AF647 detection
Experimental: as §4
The ability of ADCs to bind to cells expressing NaPi2b was assessed. […] Binding to endogenous high NaPi2b-expressing cell lines IGROV-1 and HCC-78 was assessed by flow cytometry according to methods described in Example 5.

B1: v29456 humanized anti-NaPi2b antibody (H1L2) (antibody, human IgG1, kappa)
heavy: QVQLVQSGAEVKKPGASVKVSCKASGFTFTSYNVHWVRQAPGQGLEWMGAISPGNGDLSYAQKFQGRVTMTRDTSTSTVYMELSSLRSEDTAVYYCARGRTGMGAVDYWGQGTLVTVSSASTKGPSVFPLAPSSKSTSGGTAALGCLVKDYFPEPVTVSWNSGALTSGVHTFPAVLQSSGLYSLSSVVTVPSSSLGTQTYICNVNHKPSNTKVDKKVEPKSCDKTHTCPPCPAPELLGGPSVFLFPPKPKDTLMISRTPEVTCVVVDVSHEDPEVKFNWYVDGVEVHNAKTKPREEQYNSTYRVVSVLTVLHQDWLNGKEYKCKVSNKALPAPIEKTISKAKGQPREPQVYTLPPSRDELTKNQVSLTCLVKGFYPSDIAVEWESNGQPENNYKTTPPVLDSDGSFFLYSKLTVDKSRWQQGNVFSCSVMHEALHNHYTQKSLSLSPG
light: DVQMTQSPSSLSASVGDRVTITCRASQDVYSYLNWYQQKPGKAVKLLIYYTSRLQSGVPSRFSGSGSGTDYTLTISSLQPEDFATYYCQQYNIFPWTFGQGTKLEIKRTVAAPSVFIFPPSDEQLKSGTASVVCLLNNFYPREAKVQWKVDNALQSGNSQESVTEQDSKDSTYSLSSTLTLSKADYEKHKVYACEVTHQGLSSPVTKSFNRGEC
**Q.** With B1 as the binder, how does the Kd [1] read?
**A.** 600 pM

**Q.** What about the “EC50 (read off the curve)” value [2] of the same binder?
**A.** ~1000 pM

**Q.** What about the “Bmax (APC-A GeoMean)” value (cynomolgus monkey NaPi2b) of the same binder?
**A.** 2010 APC-A GeoMean

**Q.** And the “fold lower apparent Kd than v18992 (MX35)” value (cynomolgus monkey NaPi2b)?
**A.** 10 fold

**Q.** What about the “fold lower apparent Kd than v18993 (lifastuzumab)” value (cynomolgus monkey NaPi2b) of the same binder?
**A.** 2 fold

**Q.** And the “EC50 (read off the curve)” value [3]?
**A.** ~600 pM
